The RNAGym collection of RNA variant scans (doi:10.1073/pnas.2313332121)
This sample holds only a part of the variants without activity.

B1: TPR 5TU (parent)
chain: GGAUCUUCUCGAUCUAACAAAAAAGACAAAUCUGCCACAAAGCUUGAGAGCAUCUUCGGAUGCAGAGGCGGCAGCCUUCGGUGGCGCGAUAGCGCCAACGUUCUCAACUAUGACACGCAAAACGCGUGCUCCGUUGAAUGGAGUUUAUCAUG

Variants of: B1
Assay: polymerase ribozyme fitness, log enrichment relative to wild type (log ratio); higher = more active; in vitro selection for triplet polymerase activity
How it was run: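 Both subunits of a heterodimeric triplet polymerase ribozyme were given their own mutant library, built by PCR and transcribed. Each library was annealed with a biotinylated primer, the partner subunit and triplets, incubated frozen at −7 °C, and its extended constructs gel-excised, captured on streptavidin beads and amplified by RT-PCR, all in one round done in triplicate. Fitness is the logarithm of genotype enrichment relative to wild-type enrichment, with replicates averaged by inverse-variance weighting. That logarithm is base 2, and Illumina-sequenced genotypes needed ≥10 input reads and ≥1 read per output.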

Variant | polymerase ribozyme fitness (log ratio)
A22U G25U C35U C76G G126U U135A | ≤ -4.2
U82A G86C | -2.69
A22U G124A | 0.0485
U7A A29C A41U G94C | ≤ -4.2
U53A C57U | -1.2
A40U C114G | -3.04
C18U A19G A21C C35U U55A G92C A147U | -2.94
C75A C129G U146C | ≤ -4.2
G25C C54U C57U C75U G126A | -2.79
A16U A47C G59A C87G U90A U101A A113G | ≤ -4.2
C10G G86A | -3.52
A17C G25C G62U | -3.17
A49U A138U | ≤ -4.2
U15G G59C A73G C85A | -2.7
A3U U6G C35U C76U C87G C103A A137C G152A | ≤ -4.2
C5U A21G U139C U146A | -3.99
C85A C105U G141C | -3.45
U44G U55A A91U G141C | ≤ -4.2
U6A A20C A49U A52C C79U C93A C118G | ≤ -4.2
U53A G67C C85U U109G A115U | ≤ -4.2
A17U A28G G86C A106C C116A A119U | ≤ -4.2

Variant | polymerase ribozyme fitness (log ratio)
C79U C96U | -3.43
A22C C51U U55G G67A G84C A115U G140C | ≤ -4.2
U44C | -1.11
C69G C108U U148A | ≤ -4.2
A37U A64G A73G G133U | -4.19
A52C G92U | -1.12
U53A G70A | -3.81
A20G A24G A39G A40C C76A G136U G141A | ≤ -4.2
C85A G143A | -1.99
C27A G86A U134A A147G | ≤ -4.2
U13A A41G C85A A106U | -4.16
A40C G50A A91G A147C U151A | ≤ -4.2
U33G A47U A49G C75A C76U A91U C93G A98U C114A G136C | ≤ -4.2
A16C A120C G140A | -3.75
A47G A49C U104G | ≤ -4.2
A3G A16C A22G A73G G84U C123U G141U | ≤ -4.2
A3G C96A A98U U102C | -2.26
U31G C96U C99U U127G | ≤ -4.2
C27A U56G A60U G86U A97G U111G C132A U135G | ≤ -4.2
A47G G81C | 0.162
A17U A28U G83U C96A C99U C132G | ≤ -4.2

Variant | polymerase ribozyme fitness (log ratio)
C95U C132G A150U | -3.31
A110U C123U A142C | ≤ -4.2
C57U G62A C63U C87A G141A C149U | ≤ -4.2
G126A G141U | -2.59
G58C A60G C63U G84A | 0.439
G94A G143C | -2.41
C10A A19G C57A G59A U82A C85U G141C | ≤ -4.2
G58C G65C A66C U77G U102A C132U | ≤ -4.2
G11U U31C U53A A66G C85A C87A | ≤ -4.2
A28U G70C A91G G133C | ≤ -4.2
A12C G59C C87A A107G A115U A150U | ≤ -4.2
G59U C87U | -0.949
U13G U53A C85A C95U A98U G141C | ≤ -4.2
C27G C57G U61A A106C | ≤ -4.2
C79G G81U C95U A107U C108U | ≤ -4.2
C8G G83A C99U | ≤ -4.2
A16G G48U U109G | -3.48
G58A G141C | -0.279
C10U A23G U82G C95A | ≤ -4.2
U4G U61A G88A | ≤ -4.2
C99U | -0.26

Variant | polymerase ribozyme fitness (log ratio)
A52G U82G | 0.0484
A52G U53A C85A U111G | ≤ -4.2
A49G C51G U53G C79U C118U | ≤ -4.2
C5G C63A | 0.429
U109C G117A U146A | -3.86
A19G U55G C57G A97G A106C | -2.96
C5A A12G G84A G88A A97U C116A | -3.84
C10G A22C C35U G86U A115G G124A | ≤ -4.2
C8G A41U A49G C95U A147U | ≤ -4.2
C10U U82A C87G A89U A142U | ≤ -4.2
A52U U53A C96U A119C | -2.05
A110G U144G | -3.13
C51A U82G A115U | -3.17
C27U C131U | 0.137
A37G U55A C85U C96U A107C C125A U144A A147U | ≤ -4.2
A41U C123G | -1.42
C10G C14G G25C G59U C95U A110G | ≤ -4.2
G94U G141U | -0.082
A26G A41G U53A G74A G141A | ≤ -4.2
A21C C57U C87G G126C A137C | ≤ -4.2
